The test system of the data set is ATP. Briefly: switch fluorescence ratio, 500 uM ATP over buffer (Cy3 cluster intensity, sum of 5 cycles each) (fold (ratio)); higher = stronger signal-on switching upon ATP binding; sequences stand for … in TCGTCGGCAGCGTCAGATGTGTATAAGAGACAGTTTTTTTTTTTTTTTTTTTTTTTTT…TC. The settings on record: aptamer strand: ATP DNA aptamer (quencher-CACCTGGGGGAGTATTGCGGAGGAAGG + anchor), 100 nM annealed; ATP concentration: 500 uM. In a few lines: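 Clusters with intensities outside 100-1000 RFU were excluded. The remaining Cy3-labelled switching-strand clusters on a modified Illumina MiSeq flow-cell had been annealed to 100 nM quencher-labelled ATP aptamer and imaged in selection buffer, then after 15 min with 500 uM ATP at 22 °C, for five cycles separated by NaOH stripping and re-annealing. The fluorescence ratio, averaged per switch-domain sequence, is each cluster's summed target-cycle Cy3 intensity over its summed buffer-cycle Cy3 intensity.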

± gives the standard deviation of the averaged measurements.
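Note: ATP exposure 15 min at 22 °C before imaging.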

Consider GTTGGGTTTT, for which the switch fluorescence ratio was 1.02 ± 0.06.

On to GTTGGTACTT, for which the switch fluorescence ratio came to 0.991 ± 0.02.

GTTGGTATAG: the switch fluorescence ratio was determined as 1.01 ± 0.025.

Take GTTGGTATTT: the switch fluorescence ratio came out at 0.971 ± 0.023.

For GTTGGTCTGA, the switch fluorescence ratio was determined as 0.954 ± 0.022.

In the case of GTTGGTGATT, the switch fluorescence ratio was 0.9959 ± 0.0062.

In the case of GTTGGTGGCG, the switch fluorescence ratio worked out at 1.02 ± 0.044.

On to GTTGGTGGGT, for which the switch fluorescence ratio came to 0.98 ± 0.032.

In the case of GTTGGTTAGG, the switch fluorescence ratio is 0.959 ± 0.0071.

In the case of GTTGTAAGGT, the switch fluorescence ratio is 0.986 ± 0.034.

On to GTTGTAGAGT, for which the switch fluorescence ratio turned out to be 1.03 ± 0.032.

Consider GTTGTAGGGG, for which the switch fluorescence ratio stood at 0.987 ± 0.024.

With GTTGTATCAC, the switch fluorescence ratio turned out to be 0.9832 ± 0.0097.

As to GTTGTCGGGT, the switch fluorescence ratio turned out to be 1.05 ± 0.12.

Take GTTGTCTAAT: the switch fluorescence ratio was 0.9991 ± 0.0073.

Take GTTGTGAGAG: the switch fluorescence ratio came out at 0.999 ± 0.054.

Take GTTGTGCAAT: the switch fluorescence ratio came to 1.16 ± 0.0012.

With GTTGTGCTGG, the switch fluorescence ratio amounted to 1.01 ± 0.018.

For GTTGTGGCTC, the switch fluorescence ratio was 0.975 ± 0.036.

As for GTTGTGGGGG, the switch fluorescence ratio was 1.01 ± 0.049.

With GTTGTGGTTA, the switch fluorescence ratio worked out at 1.02 ± 0.015.

Take GTTGTGTCGG: the switch fluorescence ratio was 1.01 ± 0.019.

As for GTTGTGTGGG, the switch fluorescence ratio was determined as 0.985 ± 0.035.

As for GTTGTTACTG, the switch fluorescence ratio was found to be 1.02 ± 0.019.

Regarding GTTGTTAGGG, the switch fluorescence ratio came out at 1 ± 0.0046.

As for GTTGTTCAAA, the switch fluorescence ratio was determined as 0.989 ± 0.015.

Regarding GTTGTTGCTT, the switch fluorescence ratio was found to be 0.982 ± 0.029.

On to GTTGTTGGGA, for which the switch fluorescence ratio was found to be 0.9898 ± 0.003.

Take GTTGTTGGTG: the switch fluorescence ratio was determined as 1.01 ± 0.015.

For the sequence GTTGTTTAGT, the switch fluorescence ratio was 0.994 ± 0.026.

Take GTTGTTTCAG: the switch fluorescence ratio was determined as 0.969 ± 0.022.

Turning to GTTGTTTTAA, the switch fluorescence ratio was found to be 1.05 ± 0.011.

Regarding GTTTAAAATC, the switch fluorescence ratio was found to be 0.99757 ± 0.00014.

Consider GTTTAAATCC, for which the switch fluorescence ratio is 0.989 ± 0.05.

In the case of GTTTAAATTC, the switch fluorescence ratio was found to be 1 ± 0.08.

GTTTAACGGT: the switch fluorescence ratio was found to be 1 ± 0.012.

Turning to GTTTAAGGGC, the switch fluorescence ratio was 0.988 ± 0.032.

As for GTTTACGGGC, the switch fluorescence ratio is 1.03 ± 0.027.

For GTTTATATGT, the switch fluorescence ratio was determined as 1.01 ± 0.049.

For GTTTCCAATC, the switch fluorescence ratio amounted to 1.02 ± 0.06.

On to GTTTCCTGGG, for which the switch fluorescence ratio came out at 1.03 ± 0.082.

With GTTTCGAGGT, the switch fluorescence ratio was 0.96 ± 0.012.

In the case of GTTTCGGGGA, the switch fluorescence ratio worked out at 1 ± 0.038.

Turning to GTTTCTAGCT, the switch fluorescence ratio came to 0.969 ± 0.028.

With GTTTCTGGAG, the switch fluorescence ratio turned out to be 1.03 ± 0.013.

For the sequence GTTTCTGGAT, the switch fluorescence ratio is 0.98 ± 0.032.

As for GTTTCTTTGG, the switch fluorescence ratio was determined as 1.06 ± 0.13.

With GTTTGAACGG, the switch fluorescence ratio was found to be 0.993 ± 0.018.

Regarding GTTTGAGATA, the switch fluorescence ratio was found to be 0.971 ± 0.035.

GTTTGAGCAC: the switch fluorescence ratio was determined as 1.02 ± 0.023.

As for GTTTGAGGCT, the switch fluorescence ratio came out at 1 ± 0.046.

With GTTTGAGTTT, the switch fluorescence ratio is 0.996 ± 0.026.

With GTTTGATCTG, the switch fluorescence ratio is 0.959 ± 0.026.

With GTTTGATGCG, the switch fluorescence ratio amounted to 0.995 ± 0.022.

For GTTTGCCAGG, the switch fluorescence ratio was 1.01 ± 0.013.

On to GTTTGCTGGG, for which the switch fluorescence ratio is 0.983 ± 0.035.

For GTTTGGAGGA, the switch fluorescence ratio was determined as 0.96 ± 0.024.

As for GTTTGGATAT, the switch fluorescence ratio amounted to 0.963 ± 0.01.

With GTTTGGATGC, the switch fluorescence ratio came out at 0.963 ± 0.03.

With GTTTGGCATA, the switch fluorescence ratio turned out to be 1.14 ± 0.19.

With GTTTGGCCGT, the switch fluorescence ratio stood at 0.97 ± 0.035.

In the case of GTTTGGGATA, the switch fluorescence ratio worked out at 0.992 ± 0.034.

As to GTTTGGGGGG, the switch fluorescence ratio is 1.04 ± 0.13.

In the case of GTTTGTACCG, the switch fluorescence ratio was found to be 1 ± 0.051.

In the case of GTTTGTACGT, the switch fluorescence ratio worked out at 0.975 ± 0.038.

In the case of GTTTGTAGTT, the switch fluorescence ratio was 0.968 ± 0.037.

Regarding GTTTGTCACC, the switch fluorescence ratio is 1.03 ± 0.034.

With GTTTGTGCT, the switch fluorescence ratio was determined as 0.988 ± 0.019.

With GTTTGTGTCA, the switch fluorescence ratio was 0.993 ± 0.052.

As to GTTTGTTACT, the switch fluorescence ratio stood at 0.964 ± 0.052.

GTTTGTTATC: the switch fluorescence ratio stood at 0.98 ± 0.0057.

GTTTTAAGGT: the switch fluorescence ratio was 1.017 ± 0.0067.

Regarding GTTTTAATTC, the switch fluorescence ratio was 0.9628 ± 0.0036.

Regarding GTTTTAGGAG, the switch fluorescence ratio is 0.995 ± 0.043.

For GTTTTAGTAG, the switch fluorescence ratio is 1.02 ± 0.015.

In the case of GTTTTATAAA, the switch fluorescence ratio came out at 0.9762 ± 0.0028.

Turning to GTTTTATGAT, the switch fluorescence ratio stood at 0.967 ± 0.016.

On to GTTTTATTGT, for which the switch fluorescence ratio was 0.955 ± 0.038.

In the case of GTTTTATTTG, the switch fluorescence ratio was found to be 1.01 ± 0.025.

For the sequence GTTTTCAATT, the switch fluorescence ratio came to 0.983 ± 0.01.

Take GTTTTCAGGG: the switch fluorescence ratio was determined as 1.02 ± 0.037.

As to GTTTTCAGGT, the switch fluorescence ratio turned out to be 0.992 ± 0.037.

Consider GTTTTCCGTC, for which the switch fluorescence ratio was 1 ± 0.013.

Regarding GTTTTCGGAT, the switch fluorescence ratio was found to be 0.983 ± 0.013.

GTTTTCGGTT: the switch fluorescence ratio came out at 1.013 ± 0.0056.

For GTTTTCTGGA, the switch fluorescence ratio amounted to 0.9988 ± 0.0057.

For GTTTTCTTGG, the switch fluorescence ratio turned out to be 0.977 ± 0.013.

As for GTTTTGGGAT, the switch fluorescence ratio amounted to 1.02 ± 0.031.

Take GTTTTTAACT: the switch fluorescence ratio is 1.012 ± 0.0075.

Consider GTTTTTAGAT, for which the switch fluorescence ratio was 0.9709 ± 0.0092.

For GTTTTTATGA, the switch fluorescence ratio was found to be 0.973 ± 0.017.

In the case of GTTTTTCCAG, the switch fluorescence ratio was determined as 0.9844 ± 0.0061.

In the case of GTTTTTGTTA, the switch fluorescence ratio is 0.991 ± 0.036.

As to GTTTTTTAAG, the switch fluorescence ratio amounted to 0.9877 ± 0.0089.

As to GTTTTTTGGG, the switch fluorescence ratio came out at 1 ± 0.042.

Turning to GTTTTTTTTT, the switch fluorescence ratio amounted to 1.02 ± 0.07.

Turning to TAAAAAAAGG, the switch fluorescence ratio stood at 1.05 ± 0.067.

For TAAAAAACCG, the switch fluorescence ratio came to 1.03 ± 0.025.

As for TAAAAAAGAT, the switch fluorescence ratio came to 0.978 ± 0.017.

On to TAAAAAAGGA, for which the switch fluorescence ratio was 1.05 ± 0.12.

In the case of TAAAAACGAC, the switch fluorescence ratio turned out to be 1.04 ± 0.051.

TAAAAACGGA: the switch fluorescence ratio worked out at 0.989 ± 0.042.

TAAAAACGGG: the switch fluorescence ratio was found to be 1.05 ± 0.11.

On to TAAAAACGTT, for which the switch fluorescence ratio is 1.07 ± 0.086.

Consider TAAAAAGACG, for which the switch fluorescence ratio is 1.04 ± 0.075.

With TAAAAAGGAC, the switch fluorescence ratio was found to be 0.9809 ± 0.008.

For TAAAAAGGAT, the switch fluorescence ratio was found to be 1.01 ± 0.02.

Turning to TAAAAATACT, the switch fluorescence ratio was 1.07 ± 0.11.

As to TAAAAATTTG, the switch fluorescence ratio was 1.07 ± 0.082.

Turning to TAAAACAGGA, the switch fluorescence ratio is 0.97 ± 0.017.

TAAAACATTG: the switch fluorescence ratio is 1.03 ± 0.015.

As to TAAAACCAGT, the switch fluorescence ratio worked out at 1.04 ± 0.035.

As for TAAAACCTAA, the switch fluorescence ratio is 1.12 ± 0.25.

For the sequence TAAAACGGGG, the switch fluorescence ratio is 1.02 ± 0.074.

TAAAAGAGAT: the switch fluorescence ratio is 1.04 ± 0.026.

For the sequence TAAAAGATGG, the switch fluorescence ratio is 1.02 ± 0.019.

Take TAAAAGGCGG: the switch fluorescence ratio was determined as 1.03 ± 0.029.

For the sequence TAAAAGGGCG, the switch fluorescence ratio came to 1.03 ± 0.012.

Take TAAAAGGTAC: the switch fluorescence ratio came to 1.07 ± 0.07.

For TAAAAGGTGA, the switch fluorescence ratio turned out to be 0.99 ± 0.029.

The values above are taken from the supplement of paper PMC10126150.
